Laboratory results from patent US20200377613A1.

Molecular target: survivin peptide coating antigen, not stated which (SEQ ID NO:4 or SEQ ID NO:27)
Assay: indirect ELISA; coating peptide not stated

| Binder | titer (highest dilution with signal to blank ratio >2:1) (dilution (1:x)) |
| --- | --- |
| mAb 30H3D2 (antibody, IgG1, V domains shown) VH: EVQLVESGGDLVKPGGSLKLSCAASGFTFSSYGMSWVRLTPDKRLEWVATISSGGSHTYYPDSVRGRFTISRDNAKNTLYLQMSSLKSEDTAMYYCARHPIYYYISSYAMDYWGQGTSVTVSS VL: DVVMTQTPLSLPVSLGDQASISCRSSQSLVHSTGNTYLHWYLQKPGQSPKLLIYKVSNRFSGVPDRFGGSGSGTDFTLKISRVEAEDLGVYFCSQSTHVPPTFGGGTKLEIK | 512000 |
| mAb 2C2E7 (antibody, IgG2b, V domains shown) VH: QIQLVQSGPELKKPGETVKISCKASGYTFTTYGMSWVKQAPGRGLKWMGWINPYSGVPTYAVDFKGRFAFSLETSASTAYLQINNLKNEDTATYFCARGGRRGDFGYWGQGTTLTVSS VL: QIGLTQSPAIMSASPGEKVTMTCSASSSISYMHWYQQKPGTSPKTWIYDTSKLASGVPARFSGSGSGTSYSLTISSMEAEDAATYYCHQRSSHHTFGGGTKLEIK | 512000 |
